Laboratory results from patent publication US20250129404A1, “RAPID, COLORIMETRIC ASSAY TO DETECT ACETYLTRANSFERASE ACTIVITY IN BIOLOGICAL SAMPLES” (THE FEINSTEIN INSTITUTES FOR MEDICAL RESEARCH, priority 2023, published 2025).

T1: recombinant human ChAT (rChAT) (Homo sapiens, UniProt P28329)
T1 construct: recombinant human ChAT corresponding to residue 119-748; His tag (N-histidine tag) (N); made in house; host or cells: E. coli BL21-Gold (DE3)
T1 sequence (P28329 119-748): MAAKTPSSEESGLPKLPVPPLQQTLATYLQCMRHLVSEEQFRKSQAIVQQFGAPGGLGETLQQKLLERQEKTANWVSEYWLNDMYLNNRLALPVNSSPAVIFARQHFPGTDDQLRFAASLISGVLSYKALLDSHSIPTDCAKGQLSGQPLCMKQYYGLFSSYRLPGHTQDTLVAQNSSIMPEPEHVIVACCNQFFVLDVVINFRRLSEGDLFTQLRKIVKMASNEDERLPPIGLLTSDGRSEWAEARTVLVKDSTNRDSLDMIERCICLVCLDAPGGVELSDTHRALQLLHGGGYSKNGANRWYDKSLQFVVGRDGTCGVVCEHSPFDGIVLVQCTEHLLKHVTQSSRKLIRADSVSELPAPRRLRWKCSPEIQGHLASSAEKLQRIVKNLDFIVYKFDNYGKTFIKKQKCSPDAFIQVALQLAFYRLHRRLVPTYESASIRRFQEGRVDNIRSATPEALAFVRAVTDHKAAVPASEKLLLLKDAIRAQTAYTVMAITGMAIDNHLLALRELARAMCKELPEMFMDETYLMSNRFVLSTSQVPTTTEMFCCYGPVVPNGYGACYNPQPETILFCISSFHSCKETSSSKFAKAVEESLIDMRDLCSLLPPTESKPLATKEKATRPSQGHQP

T2: recombinant human ChAT (rChAT), substrate choline (Homo sapiens, UniProt P28329)
T2 construct: recombinant human ChAT corresponding to residue 119-748; His tag (N-histidine tag) (N); made in house; host or cells: E. coli BL21-Gold (DE3)
T2 sequence (P28329 119-748): T1 sequence (P28329 119-748)

B1: PEG-ChAT: recombinant ChAT PEGylated using MS (PEG) 12 reagent (conjugate, UniProt P28329 1-748, looked up)
Choline O-acetyltransferase: MGLRTAKKRGLGGGGKWKREEGGGTRGRREVRPACFLQSGGRGDPGDVGGPAGNPGCSPHPRAATRPPPLPAHTPAHTPEWCGAASAEAAEPRRAGPHLCIPAPGLTKTPILEKVPRKMAAKTPSSEESGLPKLPVPPLQQTLATYLQCMRHLVSEEQFRKSQAIVQQFGAPGGLGETLQQKLLERQEKTANWVSEYWLNDMYLNNRLALPVNSSPAVIFARQHFPGTDDQLRFAASLISGVLSYKALLDSHSIPTDCAKGQLSGQPLCMKQYYGLFSSYRLPGHTQDTLVAQNSSIMPEPEHVIVACCNQFFVLDVVINFRRLSEGDLFTQLRKIVKMASNEDERLPPIGLLTSDGRSEWAEARTVLVKDSTNRDSLDMIERCICLVCLDAPGGVELSDTHRALQLLHGGGYSKNGANRWYDKSLQFVVGRDGTCGVVCEHSPFDGIVLVQCTEHLLKHVTQSSRKLIRADSVSELPAPRRLRWKCSPEIQGHLASSAEKLQRIVKNLDFIVYKFDNYGKTFIKKQKCSPDAFIQVALQLAFYRLHRRLVPTYESASIRRFQEGRVDNIRSATPEALAFVRAVTDHKAAVPASEKLLLLKDAIRAQTAYTVMAITGMAIDNHLLALRELARAMCKELPEMFMDETYLMSNRFVLSTSQVPTTTEMFCCYGPVVPNGYGACYNPQPETILFCISSFHSCKETSSSKFAKAVEESLIDMRDLCSLLPPTESKPLATKEKATRPSQGHQP
modifications: PEGylated with MS(PEG)12
notes: recombinant ChAT PEGylated using MS (PEG) 12 reagent
B2: rChAT: recombinant human ChAT residue 119-748 with N-histidine tag, expressed in E. coli (protein, UniProt P28329 1-748, looked up)
Choline O-acetyltransferase: B1 Choline O-acetyltransferase

Key:
[1] = target: T1, recombinant human ChAT (rChAT); experiment: Choline acetyltransferase (ChAT) colorimetric activity assay; assay type: biochemical
Protocol: Recombinant ChAT protein and ChAT PEGylation. All recombinant ChAT (rChAT) protein used was produced as described previously (10). Briefly, recombinant human ChAT corresponding to residue 119-748 (EC2.3.1.6, UnitProt 28329-3) with a N-histidine tag was expressed in E. coli BL21-Gold (DE3) cells and purified using high affinity Ni-charged columns. The purified recombinant ChAT was dialyzed at 4° C. in buffer containing 0.2×PBS, 10% glycerol and 0.5 mM TCEP (tris(2-carboxyethyl) phosphine), and subjected to extensive Triton X-114 extraction to remove contaminating endotoxins. After purification, PEGylation was carried out using MS (PEG) 12 reagent to extend the plasma half-life of the enzyme (10). Following PEGylation, the protein was dialyzed in buffer and once again extracted with Triton-X-114 to remove contaminating endotoxins. A Bradford protein assay (Bio-Rad) was used to determine rChAT protein concentration. Commercial recombinant ChAT protein was purchased from My BioSource.
Choline Acetyltransferase activity assay. An assay was developed to measure ChAT activity using an adapted version of the colorimetric assay (Reactions 1-3) (13).
Briefly, biological samples and choline chloride standards are diluted in assay buffer (containing 10 mM Tris-HCl, 150 mM NaCl, 1 mM EDTA, and 0.05% Triton X-100). 100 μl of each standard and 40 μl of each sample are added in triplicate to a 96-well plate. […] The assay is developed by addition of 150 μL of 3′3′5′5′ Tetramethylbenzidine (TMB) to all wells, and the plate is immediately analyzed spectrophotometrically at 650 nm. ChAT Activity is determined from the interpolated amount of choline depleted during the reaction, divided by the reaction time and sample volume, and multiplied by the sample dilution factor (Equation 1). In all biological samples, ChAT activity is normalized to total protein concentration, measured using Bradford protein assay (Bio-Rad) and is represented as nmol/min/mg of total protein. […]

TNF = experiment: Acute endotoxemia (LPS), TNF by ELISA; assay type: in vivo, mouse; details: 1 mg/kg i.p. 30 min prior to 0.3 mg/kg LPS, 90 min after LPS
Protocol: Endotoxemia. Lipopolysaccharide (LPS, Escherichia coli 0111: B4; Sigma) was sonicated for 30 min, vortexed and administered intraperitoneally (LD50 7 mg/kg). Animals were euthanized by CO2 asphyxiation 90 min post-LPS administration and blood was collected by cardiac puncture using heparinized syringes. Blood samples were kept on ice and centrifuged for 10 minutes at 5000 g. Plasma TNF levels were quantified using a commercially available ELISA (Invitrogen). Plasma total protein concentration was determined using a Bradford Protein Assay (Bio-Rad). Sepsis scores were determined at respective timepoints up to 72 hours following endotoxin administration as described previously (19), where a maximum score of 28 per mouse denotes the greatest clinical sickness score.
Administration of PEG-ChAT and Anti-ChAT Neutralizing Antibody. Pegylated recombinant ChAT protein or a custom made monoclonal anti-ChAT antibody (GenScript) was administered intraperitoneally at a 1 mg/kg dose 30 minutes prior to LPS administration. Acute endotoxemia was induced with a dose of 0.3 mg/kg LPS. Animals were returned to their home cages and euthanized 90 minutes after LPS administration.

[2] = test system: DSS-induced experimental colitis in C57Bl/6 male mice; experiment: DSS colitis model; assay type: in vivo, mouse; details: for histological damage (inflammation severity, crypt damage, extent of inflammation): blinded H&E scoring, day 14 (FIG. 4E-F)
Protocol: DSS Colitis Model. DSS (DSS salt, colitis grade (MW: 36000-50000), MP Biomedicals, CA) was added to the drinking water in a final concentration of 3% (wt/vol) for 7 days. The water was changed to regular water on day 8 and maintained till the end of the experiment. Survival and the disease activity index (DAI) were evaluated daily in a blinded manner. On day 14, mice were euthanized under CO2 asphyxiation and blood and tissue were collected. Colons were removed, cleaned, and sectioned longitudinally. The luminal contents were removed with cold phosphate buffered saline (PBS). Starting from the most distal end (rectum) the colon was rolled with luminal side facing upward, resulting in a “Swiss roll” with the distal end in the center and the proximal colon in the outer side of the roll. The Swiss roll was held together with a small pin and placed in 10% buffered formalin overnight at 4° C. The fixed tissue was then embedded in paraffin, sectioned at 10 μm and stained with hematoxylin and eosin. Histological analysis was carried out in a blinded manner by three independent researchers. The degree of colon inflammation was scored under the light microscope (Zeiss, Germany) using the following criteria: inflammation severity (0—none; 1—mild; 2—moderate; 3—severe), inflammation extent (0—none; 1—mucosal; 2—mucosal and submucosal; 3—transmural), Crypt damage (0—none; 1—basal, ⅓ damaged; 2—basal, ⅔/damaged; 3—crypt loss), damage distribution (0-0%; […]; 3-51-75%; 4-76-100%). Each mouse tissue was scored over 6 different sites of the colon. Serum cytokine levels (IL-6, TNFα and MCP-1) were analyzed using mouse V-Plex Biomarker Group 1 array, and the assay was performed according to the manufacturer's instructions.

[3] = target: T2, recombinant human ChAT (rChAT), substrate choline; experiment: Michaelis-Menten kinetic constants, Coenzyme A detection assay; assay type: biochemical; details: rChAT 2 μg/mL; Michaelis-Menten / Lineweaver Burke (FIG. 7C-D)
Protocol: Determination of Michaelis-Menten kinetic constants. To determine the Km constants for rChAT samples, a previously published Coenzyme A detection assay was used (12). Briefly, Coenzyme A standard was diluted in assay buffer. 100 μl of each standard and 40 μl of each sample was added to the 96-well plate in triplicate. 60 μl of Cocktail A was added to all sample wells. Immediately, 50 μl of Cocktail B was added to all sample and standard wells. The plate was immediately quantitated spectrophotometrically at 324 nm every 30 seconds for 30 minutes. Enzyme velocity was quantified as CoA formed (nmol/min/ml).
Data analysis and statistics. Data were analyzed using Graphpad Prism 9.0 software using two-tailed unpaired […] for comparisons between 2 groups or two-way ANOVA or mixed-effects model followed with Šídák's multiple comparisons test for comparisons of 3 or more groups. Michaelis Menten kinetic constants were determined using the Michaelis-Menten approximation to calculate Km and Vmax from a velocity vs. substrate relationship. Correlation coefficients were calculated using a nonparametric Spearman Correlation. For all analyses, P≤0.05 was considered statistically significant.

hypertensive animals = details: background statement; cited from earlier work

| Molecule | IC50 ([1]; preincubation of 0.4 mg/mL rChAT with inhibitor, room temperature 30 minutes (FIG. 7E)) [nM] | serum TNF vs vehicle (TNF) | spleen TNF vs vehicle (TNF) | serum TNF vs vehicle (TNF; listed as PEG-ChAT antibody) | disease activity index (DAI) vs vehicle ([2]; 1 mg/kg i.p. twice daily from day 7, from day 9 (FIG. 4C)) | severity of colitis ([2]; 1 mg/kg i.p. twice daily from day 7 to day 14) | weight loss vs vehicle ([2]; 1 mg/kg i.p. twice daily from day 7 to day 14 (FIG. 4B)) | histological damage (inflammation severity, crypt damage, extent of inflammation) [2] | colon length ([2]; day 14 (FIG. 4D)) | circulating IL-6 vs vehicle ([2]; serum, day 14 (FIG. 5A)) | circulating TNF vs vehicle ([2]; serum, day 14 (FIG. 5B)) | circulating MCP-1 vs vehicle ([2]; serum, day 14 (FIG. 5C)) | detected activity after thermal denaturing, in comparison to native preparation ([1]; 70° C. for 30 minutes (FIG. 7F), P<0.01) | enzymatic activity compared to a commercially available ChAT ([1]; FIG. 7B, P<0.01) | Vmax [3] | blood pressure (hypertensive animals) |
| --- | --- | --- | --- | --- | --- | --- | --- | --- | --- | --- | --- | --- | --- | --- | --- | --- |
| C[N+](C)(C)CCC(=O)c1cccc2ccccc12 [alpha-NETA, reference compound] | 148 |  |  |  |  |  |  |  |  |  |  |  |  |  |  |  |
| B1 |  | significantly attenuates | decrease | significantly ameliorated | significant reduction | significantly reduces | significant reduction | attenuates | significantly improves | significantly reduced | significantly reduced | significantly reduced |  |  |  |  |
| B2 |  |  |  |  |  |  |  | reduced |  |  |  |  | significantly reduced | significant increase | 0.05 Δ CoA (nmol/min) | normalizes |
